{
  "source": "paper PMC11157272",
  "about": "“Fructose-1-kinase has pleiotropic roles in Escherichia coli” (The Journal of Biological Chemistry, 2023)",
  "key": {"[1]": {"biological_target": "Cra (FruR), WT (Escherichia coli (gene from strain …, UniProt P0ACP1 1-334))", "assay": "BLI; 100 nM Cra; BLI: 50 mM Hepes, 100 mM KCl, 0.1 mM EDTA, 10 mM MgCl2, 0.3 mM DTT, 0.1 mg/mL BSA, pH 7.0, about room temperature; concentrations as dimer", "conditions": "protein: recombinant; tags: none; chain copies: 2; label: biotin"}, "[2]": {"biological_target": "the molecule itself", "assay": "atomic force microscopy; single-protein samples (FruK+DNA, Cra+DNA) in 50 mM Hepes, 100 mM KCl, 0.1 mM EDTA, 10 mM MgCl2, 0.3 mM DTT, pH 7.0, 60 min at room temperature, deposited on functionalised mica; molecular volumes converted to molecular weights"}, "[3]": {"biological_target": "fructose-1-kinase (FruK), untagged, expressed from pET-3a and purified (E. coli), P0AEW9", "assay": "atomic force microscopy; single-protein samples (FruK+DNA, Cra+DNA) in 50 mM Hepes, 100 mM KCl, 0.1 mM EDTA, 10 mM MgCl2, 0.3 mM DTT, pH 7.0, 60 min at room temperature, deposited on functionalised mica; molecular volumes converted to molecular weights"}, "[4]": {"biological_target": "T1, catabolite repressor activator protein (WT Cra), untagged (E. coli), P0ACP1", "T1 chain": "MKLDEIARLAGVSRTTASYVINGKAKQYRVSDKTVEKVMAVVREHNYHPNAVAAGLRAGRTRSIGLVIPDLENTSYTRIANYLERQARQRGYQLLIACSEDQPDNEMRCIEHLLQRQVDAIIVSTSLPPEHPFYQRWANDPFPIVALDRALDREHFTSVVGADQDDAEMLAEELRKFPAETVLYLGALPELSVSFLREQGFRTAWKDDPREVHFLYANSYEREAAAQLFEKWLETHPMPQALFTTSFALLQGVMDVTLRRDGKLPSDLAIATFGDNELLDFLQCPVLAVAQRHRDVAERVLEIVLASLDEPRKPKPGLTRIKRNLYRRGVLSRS", "assay": "atomic force microscopy; Cra, FruK and 331 bp fruBKA promoter DNA mixed (20 nM Cra/20 nM FruK and 20 nM Cra/10 nM FruK), 50 mM Hepes, 100 mM KCl, 0.1 mM EDTA, 10 mM MgCl2, 0.3 mM DTT, pH 7.0, 60 min at room temperature, deposited on functionalised mica; DNA-bound and DNA-free particles; volumes converted to molecular weights and clustered"}, "[5]": {"biological_target": "T2, His-tagged Cra (pET3a-Cra-C-His) for biolayer interferometry (E. coli), P0ACP1", "T2 chain": "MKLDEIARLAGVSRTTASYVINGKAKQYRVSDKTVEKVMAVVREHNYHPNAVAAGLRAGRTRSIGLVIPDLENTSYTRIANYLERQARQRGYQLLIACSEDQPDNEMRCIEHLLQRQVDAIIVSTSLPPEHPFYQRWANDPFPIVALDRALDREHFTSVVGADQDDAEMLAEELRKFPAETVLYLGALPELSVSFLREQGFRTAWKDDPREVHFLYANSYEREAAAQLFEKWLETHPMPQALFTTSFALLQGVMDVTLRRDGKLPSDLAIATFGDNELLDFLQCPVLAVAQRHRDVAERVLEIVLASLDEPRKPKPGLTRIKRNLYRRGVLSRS", "assay": "BLI; equilibrium BLI (Octet RED96): biotinylated operator DNA on streptavidin tips, dipped into pre-equilibrated 2.5 nM Cra dimer plus varied FruK; 50 mM Hepes, 0.1 M KCl, 0.1 mM EDTA, 10 mM MgCl2, pH 7.0, 0.3 mM DTT, 0.1 mg/mL BSA; room temperature; global fit to Equation 2 with n assumed 1"}, "[6]": {"biological_target": "T1, catabolite repressor activator protein …", "assay": "BLI; equilibrium BLI (Octet RED96): biotinylated operator DNA on streptavidin tips, dipped into pre-equilibrated 2.5 nM Cra dimer plus varied FruK; 50 mM Hepes, 0.1 M KCl, 0.1 mM EDTA, 10 mM MgCl2, pH 7.0, 0.3 mM DTT, 0.1 mg/mL BSA; room temperature; global fit to Equation 2 with n assumed 1"}},
  "data": [
    {"binder": "fruBproximal (dsDNA, 5' biotin) DNA 1: ATGCATGTTGTGTGGTTCTTGAAACGTTTCAGCTCACACAGGTCC DNA 2: GGACCTGTGTGAGCTGAAACGTTTCAAGAACCACACAACATGCAT", "values": [
      {"measurement": "binding result", "setting": "[1]", "result": "binds"}
    ]},
    {"binder": "catabolite repressor activator protein (WT Cra), untagged (natural protein, E. coli, UniProt P0ACP1 1-334, looked up, also called FruR; source: E. coli 3.300, constitutively over-expressed from pHG165a, in lysate; E. coli BLIM, constitutively expressed, purified (ammonium sulfate precipitation, phosphocellulose)) MKLDEIARLAGVSRTTASYVINGKAKQYRVSDKTVEKVMAVVREHNYHPNAVAAGLRAGRTRSIGLVIPDLENTSYTRIANYLERQARQRGYQLLIACSEDQPDNEMRCIEHLLQRQVDAIIVSTSLPPEHPFYQRWANDPFPIVALDRALDREHFTSVVGADQDDAEMLAEELRKFPAETVLYLGALPELSVSFLREQGFRTAWKDDPREVHFLYANSYEREAAAQLFEKWLETHPMPQALFTTSFALLQGVMDVTLRRDGKLPSDLAIATFGDNELLDFLQCPVLAVAQRHRDVAERVLEIVLASLDEPRKPKPGLTRIKRNLYRRGVLSRS", "values": [
      {"measurement": "stoichiometry N", "setting": "[2]", "result": 2}
    ]},
    {"binder": "fructose-1-kinase (FruK), untagged, expressed from pET-3a and purified, P0AEW9 1-312 (enzyme, modifications not checked) MSRRVATITLNPAYDLVGFCPEIERGEVNLVKTTGLHAAGKGINVAKVLKDLGIDVTVGGFLGKDNQDGFQQLFSELGIANRFQVVQGRTRINVKLTEKDGEVTDFNFSGFEVTPADWERFVTDSLSWLGQFDMVCVSGSLPSGVSPEAFTDWMTRLRSQCPCIIFDSSREALVAGLKAAPWLVKPNRRELEIWAGRKLPEMKDVIEAAHALREQGIAHVVISLGAEGALWVNASGEWIAKPPSVDVVSTVGAGDSMVGGLIYGLLMRESSEHTLRLATAVAALAVSQSNVGITDRPQLAAMMARVDLQPFN", "values": [
      {"measurement": "stoichiometry N", "setting": "[3]", "result": 2},
      {"measurement": "stoichiometry N (FruK homodimer per Cra homodimer)", "setting": "[4]", "result": 1},
      {"measurement": "Kd", "setting": "[5]", "result": 1.6, "unit": "nM"},
      {"measurement": "Kd", "setting": "[6]", "result": 2, "unit": "nM"}
    ]},
    {"binder": "His-tagged FruK (pET3a) for biolayer interferometry, P0AEW9 1-312 (enzyme, modifications not checked) MSRRVATITLNPAYDLVGFCPEIERGEVNLVKTTGLHAAGKGINVAKVLKDLGIDVTVGGFLGKDNQDGFQQLFSELGIANRFQVVQGRTRINVKLTEKDGEVTDFNFSGFEVTPADWERFVTDSLSWLGQFDMVCVSGSLPSGVSPEAFTDWMTRLRSQCPCIIFDSSREALVAGLKAAPWLVKPNRRELEIWAGRKLPEMKDVIEAAHALREQGIAHVVISLGAEGALWVNASGEWIAKPPSVDVVSTVGAGDSMVGGLIYGLLMRESSEHTLRLATAVAALAVSQSNVGITDRPQLAAMMARVDLQPFN", "values": [
      {"measurement": "Kd", "setting": "[6]", "result": 2.1, "unit": "nM"}
    ]}
  ]
}
